In the RNAGym collection of RNA variant scans (doi:10.1073/pnas.2313332121):
Variants at the floor of the assay were thinned out.

B1: TPR 5TU (parent)
chain: GGAUCUUCUCGAUCUAACAAAAAAGACAAAUCUGCCACAAAGCUUGAGAGCAUCUUCGGAUGCAGAGGCGGCAGCCUUCGGUGGCGCGAUAGCGCCAACGUUCUCAACUAUGACACGCAAAACGCGUGCUCCGUUGAAUGGAGUUUAUCAUG

Variants of: B1
Assay: polymerase ribozyme fitness, log enrichment relative to wild type (log ratio); higher = more active; in vitro selection for triplet polymerase activity
Procedure, shortened: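 The heterodimeric triplet polymerase ribozyme's subunits were each mutagenized into PCR-built libraries and transcribed. Every library was selected once, in triplicate, by annealing with a biotinylated primer, the partner subunit and triplets, incubating frozen at −7 °C, gel-excising extended constructs, capturing on streptavidin beads and running RT-PCR. Input and output libraries were Illumina-sequenced, with genotypes kept only at ≥10 input reads and ≥1 read per output. Fitness, from inverse-variance-weighted replicate averages, is the base-2 logarithm of genotype enrichment over wild-type enrichment.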

Row | Variant | polymerase ribozyme fitness (log ratio)
1 | GGAUCUUCUCGAUCUAACAAAAAAGACAAAUCUGCCACAAAGCUUGAGAGCAUCAUCGGAUGCAGAGGCGGCAGCCUUCGGUGGCGCGAUAGCGCCAACGUGCUCAACUAUGACACGCAAAACGCGUGCUCCGUUGAAUGGAGUUUAUCAUG [U55A U102G] | -4.04
2 | GGAUCUUCUCGAUCUAACAAAAAAGACAAAUCUGCCACAAAGCUUGAGAGCAUCAUCGGAUGCAGAGGCGGCAGCCAUCGGUGGCGCGAUAGCGCCAACGUUCUCAACUAUGACACGCAAAACGCGUGCUCCGUUGAAUGGAGUUUAUCAUG [U55A U77A] | ≤ -4.2
3 | GGAUCUUCUCGAUCUAACAAAAAAGACAAAUCUGCCACAAAGCUUGAGAGCAUCAUCGGAGGCAGAGGCGGCAGCCUUCGGUGGCUCGAUAGCGCCAACGUUCUCAACUAUGACACGCAAAACGCGUGCUCCGUUGAAUGGAGUUUAUCAUG [U55A U61G G86U] | ≤ -4.2
4 | GGAUCUUCUCGAUCUAACAAAAAAGACAAAUCUGCCACAAAGCUUGAGAGCAUCAUCGGAUGCAGAGGCGGCAGCCUGCGGUGUCGGGAUAGCGCCAACGUUCUCAACUAUGACACGUAAAACGCGUGCUCCGUUGAAUGGAGUUUAUCAUG [U55A U78G G84U C87G C118U] | ≤ -4.2
5 | GGAUCUUCUCGAUCUAACAAAAAAGACAAAUCUGCCACAAAGCUUGAGAGCAUCAUCGGAUGCAGAGGCGGCAGCCUUCGGUGGCGCGAUAGCGCCAACGUUCUCAACUAUGACACGCAAAACGCGUGCUCCGUAGAAUGGAGUUUAUCAUG [U55A U135A] | -1.74
6 | GGAUCUUCUCGAUCUAACAAAAAAGACAAAUCUGCCACAAAGCUUGAGAGCAUCAUCGGAUGCAGAGGCGGCAGCCUUCGGUGGCGCGAUAGCGCCAACGUUCUCAACGAUGACACGCAAAACGCGUGCUCCGUUGUAUGGAGUUUAUCAUG [U55A U109G A137U] | -4.19
7 | GGAUCUUCUCGAUCUAACAAAAAAGACAAAUCUGCCACAAAGCUUGAGAGCAUCAUCGGAUGCAGAGGCGGCAGCCUUCGGUGGCGCGAUAGCGCCAACGUUCUCAACUAUGACACGCAAAACGCGUGCUCCGUUGAAGGGAGUUUAUCAUG [U55A U139G] | -0.865
8 | GGAUCUUCUCGAUCUAACAAAAAAGACAAAUCUGCCACAAAGCUUGAGAGCAUCAUCGGAUGCAGAGGCGGCAGCCCUCGGUGGCGCGAUAGCGCCAACGUUCUAAUCUAUGACACGCAAAACGCGGGCUCCGUUGCAUGGAGUUUAUCAUG [U55A U77C C105A A107U U127G A137C] | ≤ -4.2
9 | GGAUCUUCUCGAUCUAACAAAAAAGACAAAUCUGCCACAAAGCUUGAGAGCAUCAUCGGAUGCAGAGGCGGCAGCCUUCGGGGGCGCGAUAGCGCCAACGUUCUCAACUAUGACACGCAAAACGCGUGCUCCGUUGAAUGGAGUUUAUCAUG [U55A U82G] | -0.931
10 | GGAUCUUCUCGAUCUAACAAAAAAGACAAAUCUGCCACAAAGCUUGAGAGCAUCAUCGGAUGCAGAGGCGGCAGCCUUCGGCGGCGCGAUAGCGCCAACGUUCUCAACUAUGACACGCAAAACGCGUGCUCCGUUGAAUGGAGUUUAUCAUG [U55A U82C] | -0.191
11 | GGAUCUUCUCGAUCUAACAAAAAAGACAAAUCUGCCACAAAGCUUGAGAGCAUCAUCGGAUGCAGAGGCGGCAGCCUUCGGUGGCGCGAUAGCGCCAACGUUCUCAACUAUGACACGCAAAACGCGGGCUCCGUUGAAUGGAGUUUAUCAUG [U55A U127G] | -2.72
12 | GGAUCUUCUCGAUCUAACAAAAAAGACAAAUCUGCCACAAAGCUUGAGAGCAUCAUCGGAUGCAGAGGCGGCAGCCUUCGGUGGCGCGAUAGCGCCAACGGUCUCAACUAUGACACGCAAAACGCGUGCUCCGUUGAAUGGAGUUUAUCAUG [U55A U101G] | -0.568
13 | GGAUCUUCUCGAUCUAACAAAAAAGACAAAUCUGCCACAAAGCUUGAGAGCAUCAUCGGAUGCAGAGGCGGCAGCCUUCGGGGGCGCGAUAGCGCCAACGUUCUCAACUAUGACAAGCAAUACGCGUGCUCCGUUGCAUGGAGUUUAUCAUG [U55A U82G C116A A121U A137C] | -3.5
14 | GGAUCUUCUCGAUCUAACAAAAAAGACAAAUCUGCCACAAAGCUUGAGAGCAUCAUCGGAUGCAGAGGCGGCAGCCUCCGGUGGCGCGAUAGCGCCAACGUUCUCAACUAUGACACGCAAAAGGCGUGCUCCGUUGAAUGGAGUUUAUCAUG [U55A U78C C123G] | -0.403
15 | GGAUCUUCUCGAUCUAACAAAAAAGACAAAUCUGCCACAAAGCUUGAGAGCAUCAUCGGAUGCAGAGGCGGCAGCCUUCGGUGGCGCGAUAGCGCCAACGUUCUCAACUAUGACACGCAAAACGCGUGCUCCGGUGAAUGGAGUUUAUCAUG [U55A U134G] | -1.99
16 | GGAUCUUCUCGAUCUAACAAAAAAGACAAAUCUGCCACAAAGCUUGAGAGCAUCAUCGGAUGCAGAGGCGGCAGCCUUCGGUGGCGCGAUAGCGCCAACGUUCUCAACUAUGACACGCAAAACGCGUGCUCCGCUGAAUGGAGUUUAUCAUG [U55A U134C] | -0.296
17 | GGAUCUUCUCGAUCUAACAAAAAAGACAAAUCUGCCACAAAGCUUGAGAGCAUCAUCGGAUGCAGAGGCGGCAGCCUACGGUGGUGCGAUAGUGCCAACGUUCUCAACUAUGACACGCAAAACGCGUGCUCCGUUGAAUGGAGUUUAUCAUG [U55A U78A C85U C93U] | ≤ -4.2
18 | GGAUCUUCUCGAUCUAACAAAAAAGACAAAUCUGCCACAAAGCUUGAGAGCAUCAUCGGAUGCAGAGGCGGCAGCCUUCGGUGGCGCGACAGCGUCAACGUUCUCAACUAUGACACGCAAAACGCGUGCUCCGUUGAAUGGAGUUCAUAAUG [U55A U90C C95U U146C C149A] | ≤ -4.2
19 | GGAUCUUCUCGAUCUAACAAAAAAGACAAAUCUGCCACAAAGCUUGAGAGCAUCAUCGGAUGCAGAGGCGGCAGCCUGCGGUGGCGCGAUAGCUCCAACGUUCUCAACUAUGAGACGCAAAACGCGUGCUCCGUUGAAUGGAGUUUAUCAUG [U55A U78G G94U C114G] | ≤ -4.2
